Reference: publication PMC5424160, “Menin enhances c-Myc-mediated transcription to promote cancer progression” (Nature Communications, 2017)

Target: T1, GST-CycT1 (UniProt O60563 1-726)
T1 construct: Cyclin T1, cDNA cloned into pGEX-4T-1; also called GST fused CycT1 protein; source: Escherichia coli (DE3), purified
Assay: pull-down; GST pull-down: purified GST fused protein as bait and purified His-tag protein; pull-down buffer 150 mM NaCl, 50 mM Tris pH 7.5, 0.1% NP-40, 5 mM DTT; western blot
Conditions: both partners purified

T1 sequence (O60563 whole entry, the tested form may be a part): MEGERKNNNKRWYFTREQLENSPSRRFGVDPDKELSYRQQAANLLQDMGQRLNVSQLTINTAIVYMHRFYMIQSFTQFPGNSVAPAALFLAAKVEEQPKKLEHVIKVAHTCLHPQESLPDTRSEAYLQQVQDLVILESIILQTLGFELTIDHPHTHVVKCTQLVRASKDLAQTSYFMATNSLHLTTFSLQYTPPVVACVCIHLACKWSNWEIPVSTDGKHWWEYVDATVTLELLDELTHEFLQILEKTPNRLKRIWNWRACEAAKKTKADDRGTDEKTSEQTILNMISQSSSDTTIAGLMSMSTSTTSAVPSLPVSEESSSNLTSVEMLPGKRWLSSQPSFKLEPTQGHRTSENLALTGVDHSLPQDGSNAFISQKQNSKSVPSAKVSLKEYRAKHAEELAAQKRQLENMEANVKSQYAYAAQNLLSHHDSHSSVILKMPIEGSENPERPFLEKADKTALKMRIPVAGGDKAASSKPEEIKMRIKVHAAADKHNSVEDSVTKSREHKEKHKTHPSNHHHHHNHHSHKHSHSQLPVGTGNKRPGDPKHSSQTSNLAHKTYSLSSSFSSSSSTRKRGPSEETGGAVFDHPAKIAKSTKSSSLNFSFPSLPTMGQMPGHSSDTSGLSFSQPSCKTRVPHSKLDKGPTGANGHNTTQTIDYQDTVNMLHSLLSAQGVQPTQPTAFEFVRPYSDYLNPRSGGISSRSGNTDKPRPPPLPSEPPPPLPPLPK

binding result: binds
B1: His-Menin (natural protein, UniProt O00255 1-610, looked up)
chain: MGLKAAQKTLFPLRSIDDVVRLFAAELGREEPDLVLLSLVLGFVEHFLAVNRVIPTNVPELTFQPSPAPDPPGGLTYFPVADLSIIAALYARFTAQIRGAVDLSLYPREGGVSSRELVKKVSDVIWNSLSRSYFKDRAHIQSLFSFITGTKLDSSGVAFAVVGACQALGLRDVHLALSEDHAWVVFGPNGEQTAEVTWHGKGNEDRRGQTVNAGVAERSWLYLKGSYMRCDRKMEVAFMVCAINPSIDLHTDSLELLQLQQKLLWLLYDLGHLERYPMALGNLADLEELEPTPGRPDPLTLYHKGIASAKTYYRDEHIYPYMYLAGYHCRNRNVREALQAWADTATVIQDYNYCREDEEIYKEFFEVANDVIPNLLKEAASLLEAGEERPGEQSQGTQSQGSALQDPECFAHLLRFYDGICKWEEGSPTPVLHVGWATFLVQSLGRFEGQVRQKVRIVSREAEAAEAEEPWGEEAREGRRRGPRRESKPEEPPPPKKPALDKGLGTGQGAVSGPPRKPPGTVAGTARGPEGGSTAQVPAPTASPPPEGPVLTFQSEKMKGMKELLVATKINSSAIKLQLTAQSQVQMKKQKVSTPSDYTLSFLKRQRKGL
notes: Menin, MEN1 cDNA cloned into pET-22b (+); also called His-tagged Menin protein; recombinant His-Menin protein; source: Escherichia coli (DE3), purified
